Measurements taken from patent US20150025016A1 (COMMISSARIAT A L ENERGIE ATOMIQUE ET AUX ENERGIES …, published 2015).

B1: peptide i1 (fragment of histone H3, α3 helix) (peptide)
peptide: GAMGTIMPKDIQLARRIRG
notes: The N-terminal GAMG comes from the cloning vector

Each binder was assayed against T1, Asf1 (1-156), conserved N-terminal domain of human Asf1 (human, UniProt Q9Y294 1-156) (assay: ITC (microcalorimetry)).
T1 construct: range 1-156; The ITC legend says Asf1 1-156; Recombinant, cloned in peTM30; also called Asf1a 1-156
T1 sequence (Q9Y294 1-156 limits assumed): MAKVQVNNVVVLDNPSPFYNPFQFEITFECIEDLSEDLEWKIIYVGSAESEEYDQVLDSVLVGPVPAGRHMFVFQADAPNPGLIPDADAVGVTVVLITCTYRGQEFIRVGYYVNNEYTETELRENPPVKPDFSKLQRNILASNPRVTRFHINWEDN
Procedure: (§1) All calorimetry experiments were carried out in 50 mM Tris buffer pH 7.4 at 5° C., unless otherwise indicated. Peptides were introduced in the syringe at a concentration of […], and Asf1 was added to the cuvette at a concentration of 30 μM or 10 μM. Calorimety tests were also conducted at 25° C. or in 50 mM Tris buffer 150 mM NaCl pH 7.4 to obtain more detailed information on the characteristics of the interactions studied.
Binder LTAAEHAKRSTLTPKEAQLARRIEGAGASVTLNGFG [inhibitor peptide Asf1/H3-H4 of SEQ ID No 54] has a Kd of 120 nM.
For LTAAEHAKRSTLTPKEAELARRIEGAGASVTLNGFG [inhibitor peptide Asf1/H3-H4 of SEQ ID No 55], the Kd was 880 nM.
GRKKRRQRRRGAMGTITPKEAQLARRIRGAGGVTLNGFG [inhibitor peptide Asf1/H3-H4, peptide TAT-i42V] gave a Kd of 620 nM.
Binder GAMGRVPPAVRKLGNSTERKWAELARRIRGAGGVTLNGFG [inhibitor peptide Asf1/H3-H4 of SEQ ID No 64] has a Kd of 80 nM.
For RRPRRPRRPRRPRRPASTERKWAELARRIRGAGGVTLNGFGGCA [inhibitor peptide Asf1/H3-H4, peptide RRP5-i5], the Kd was 670 nM.
GAMGTLTPKEAELARRIRGAGRTLNGFG [inhibitor peptide Asf1/H3-H4 of SEQ ID No 49] was tested, and the Kd was 950 nM.
For GAMGTLTPKEAELARRIRGAGGRTLNGFG [inhibitor peptide Asf1/H3-H4, peptide i4], the Kd was 180 nM.
Binder GAMGTITPKEAQLARRIRGAGGRTLNGFG [inhibitor peptide Asf1/H3-H4, peptide i4_2] has a Kd of 220 nM.
GAMGTLTPKEAELARRIRGAGGVTYDGFG [inhibitor peptide Asf1/H3-H4 of SEQ ID No 61] was tested, and the Kd was 100 nM.
GAMGTLTPKEAELARRIRGAGGVTLNGFG [inhibitor peptide Asf1/H3-H4, peptide i4V] was tested, and the Kd was 60 nM.
GAMGTITPKEAQLARRIRGAGGVTLNGFG [inhibitor peptide Asf1/H3-H4, peptide i42V] was tested, and the Kd was 350 nM.
In the case of GAMGTRTPKEARLARRIRGAGGRTLNGFG [inhibitor peptide Asf1/H3-H4 of SEQ ID No 57], the Kd is reported as 260 nM.
GAMGTRTPKERRLARRIRGAGGRTLNGFG [inhibitor peptide Asf1/H3-H4 of SEQ ID No 56] was tested, and the Kd was 30 nM.
GAMGLTAAEHAKRSTLTPKEAQLARRIRGAGGVTLNGFG [inhibitor peptide Asf1/H3-H4 of SEQ ID No 52] gave a Kd of 30 nM.
Binder GAMGTLTPKEAELARRIRGARTLNGFG [inhibitor peptide Asf1/H3-H4 of SEQ ID No 73] has a Kd of 3890 nM.
Binder GAMGTIMPKDIQLARRIRGAGGRTLYGFG [inhibitor peptide Asf1/H3-H4, peptide i4_1] has a Kd of 560 nM.
In the case of GAMGRVPPAVRKLGNASTERKWAELARRIRGAGGVTLNGFG [inhibitor peptide Asf1/H3-H4 of SEQ ID No 65], the Kd is reported as 60 nM.
GAMGTIMPKDIQLARRIRGAGASRTLYGFG [inhibitor peptide Asf1/H3-H4 of SEQ ID No 39] gave a Kd of 350 nM.
GAMGTLTPKEAELARRIRGAGGVTLNGANFVSTG [inhibitor peptide Asf1/H3-H4 of SEQ ID No 63] was tested, and the Kd was 1680 nM.
RRPRRPRRPRRPRRPGAMGTIMPKDIQLARRIRGGCA [inhibitor peptide Asf1/H3-H4, peptide RRP5-i1] showed a Kd of 460 nM.
GAMGTLTPKEAELARRIRGAGGVTLNGFGASTG [inhibitor peptide Asf1/H3-H4 of SEQ ID No 62] gave a Kd of 320 nM.
B1 showed a Kd of 8700 nM.
With GAMGTLTPKEAELARRIRGAGASGRTLNGFG [inhibitor peptide Asf1/H3-H4 of SEQ ID No 74] the Kd was 1890 nM.
GAMGTLTPKEAELARRIRG [Stabilized H3 fragment of SEQ ID No 72] was tested, and the Kd was 2230 nM.
For RRPRRPRRPRRPRRPGAMGTITPKEAQLARRIRGAGGVTLNGFGCA [inhibitor peptide Asf1/H3-H4, peptide RRP5-i42V-CA], the Kd was 420 nM.
Work on RRPRRPRRPRRPRRPGAMGTITPKEAQLARRIRGAGGVTLNGFG [inhibitor peptide Asf1/H3-H4, peptide RRP5-i42V] yielded a Kd of 590 nM.
ASTERKWAELARRIAGAGGVTLNGFG [Peptide i5_Aloop] gave a Kd of 27 nM.
Binder ASTERKWAELARRIRGAGGATLNGFG [Peptide i5_loopA] has a Kd of 63 nM.
With ASTRRKWAELARRIRGAGGVTLNGFG [peptide of SEQ ID No 33] the Kd was 1330 nM.
With ASTERKWAELARRIRGAGGVTLDGFG [Peptide i5_D] the Kd was 9 nM.
ASTERKWAELARRIRGAGGRTLNGFG [Peptide i5_loopR] gave a Kd of 29 nM.
Binder ASTEEKWARLARRIRGAGGVTLNGFG [Peptide i5_s3] has a Kd of 20 nM.
GAMGTITPKEAQLARRIEGAGASVTLNGFG [inhibitor peptide Asf1/H3-H4 of SEQ ID No 44] was tested, and the Kd was 660 nM.
GAMGTLTPKEAELARRIRGAGASRTLNGFG [inhibitor peptide Asf1/H3-H4 of SEQ ID No 43] was tested, and the Kd was 350 nM.
In the case of GAMGTITPKEEQLRRRIEGAGASVTLNGFG [inhibitor peptide Asf1/H3-H4 of SEQ ID No 46], the Kd is reported as 420 nM.
With GAMGTITPKEAQLARRIRGAGASRTLNGFG [inhibitor peptide Asf1/H3-H4 of SEQ ID No 41] the Kd was 800 nM.
Binder GAMGTLTPKEAELARRIEGAGASVTLNGFG [inhibitor peptide Asf1/H3-H4 of SEQ ID No 45] has a Kd of 2000 nM.
Work on LTAAEHAKRSTLTPKEAELARRIRGAGGVTLNGFG [inhibitor peptide Asf1/H3-H4 of SEQ ID No 53] yielded a Kd of 60 nM.
In the case of GAMGTITPKEAQLARRIRG [Stabilized H3 fragment of SEQ ID No 71], the Kd is reported as 1400 nM.

These binders were tested against T1, Asf1 (1-156), conserved N-terminal … (assay: ITC (microcalorimetry); second printing of SEQ ID No 42 in a later block of the 6th table).
Procedure: as §1
Work on GAMGTLTPKEAELARRIRGAGGRTLNGFG [inhibitor peptide Asf1/H3-H4, peptide i4] yielded a Kd of 180 nM.

These binders were tested against T2, human protein GST-Asf1 1-156 (human, UniProt Q9Y294 1-156) (assay: competition on GST column: GST-Asf1 1-156 beads loaded with histones H3-H4, elution with 0, 5, 10, 50 and 100 µM peptide; released histone H3 shown by Western blot (anti-H3, anti-GST)).
T2 construct: range 1-156; also called GST-Asf1a; GST beads linked to Asf1; not shown: GST tag
T2 sequence (Q9Y294 1-156 limits assumed): as the sequence (Q9Y294 1-156 limits assumed) above
Procedure: The human protein GST-Asf1 1-156 was produced and then incubated with GST beads (glutathione S transferase, Sigma). […] After washing with 50 mM Tris buffer pH8, 150 mM NaCl, 1 mM EDTA, 1 mM DTT, 0.5% NP40, the beads were incubated with different concentrations of peptide (0 to 1 mM) dissolved in the same buffer.
ASTERKWAEAARRARGAGGVTLNGAG [Peptide i5mut (control peptide)]: no binding (tested: 100 µM).
